The data set has as its target PSMA (prostate-specific membrane antigen) (UniProt Q04609). Kind of data set: SPR. To be noted: 2'-fluoro modified ('2F-modified', positions not stated); 3' spacer-NH2 coupled to DSPE-PEG-NHS nanoparticle; OpenSPR, carboxyl chip with amine coupling, running buffer PBS pH 7.4, 20 uL/min; temperature not stated.
Chain of UniProt Q04609 (Q04609 44-750): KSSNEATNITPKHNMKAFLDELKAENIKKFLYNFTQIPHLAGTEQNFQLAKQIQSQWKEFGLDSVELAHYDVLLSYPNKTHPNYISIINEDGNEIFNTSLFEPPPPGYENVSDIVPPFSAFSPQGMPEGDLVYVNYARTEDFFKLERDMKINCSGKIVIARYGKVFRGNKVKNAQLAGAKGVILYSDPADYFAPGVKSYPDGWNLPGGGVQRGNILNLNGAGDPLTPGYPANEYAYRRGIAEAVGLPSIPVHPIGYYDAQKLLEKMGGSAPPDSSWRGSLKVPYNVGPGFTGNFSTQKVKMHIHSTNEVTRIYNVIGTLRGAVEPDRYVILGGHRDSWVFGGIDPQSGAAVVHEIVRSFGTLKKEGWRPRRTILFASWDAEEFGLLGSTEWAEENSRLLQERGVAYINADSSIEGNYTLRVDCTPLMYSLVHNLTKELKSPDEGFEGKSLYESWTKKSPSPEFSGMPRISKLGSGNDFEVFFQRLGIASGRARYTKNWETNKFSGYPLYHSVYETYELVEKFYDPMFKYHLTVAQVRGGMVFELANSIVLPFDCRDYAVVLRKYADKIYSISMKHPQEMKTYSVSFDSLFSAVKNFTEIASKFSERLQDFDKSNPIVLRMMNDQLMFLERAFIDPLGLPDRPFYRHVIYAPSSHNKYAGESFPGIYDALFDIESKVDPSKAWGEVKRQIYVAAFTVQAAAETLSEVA

As usually defined, the Kd is a measure of binding affinity in units of concentration. Higher therefore signals a looser complex. GGGAGGACGAUGCGGAUCAGCCAUGUUUACGUCACUCCU displayed a Kd of 602 nM.

Values taken from publication PMC7563377.
